The record followed here is US20240025993A1, “CD19 BINDING MOLECULES AND USES THEREOF” (NOVARTIS AG, priority 2020, published 2024).

The target of the experiment is CD3-Fc. Briefly: SPR (Biacore T200, 25 C), CD3-Fc captured on anti-hFc CM5 chip, antibody as analyte, 1:1 model.

B1: anti-CD3 antibody designated as CD3hi (antibody, V domains shown)
VH: EVQLVESGGGLVQPGGSLKLSCAASGFTFNTYAMNWVRQASGKGLEWVGRIRSKYNNYATYYADSVKDRFTISRDDSKSTLYLQMNSLKTEDTAVYYCVRHGNFGNSYVSWFAYWGQGTLVTVSS
VL: QAVVTQEPSLTVSPGGTVTLTCRSSTGAVTTSNYANWVQQKPGQAPRGLIGGTNKRAPWTPARFSGSLLGDKAALTLSGAQPEDEAEYFCALWYSNLWVFGGGTKLTVL
As to B1, the Kd – broadly, the equilibrium constant for the complex coming apart – came out at 16 nM.

B2: anti-CD3 antibody designated as CD3lo (antibody, V domains shown)
VH: EVQLVESGGGLVQPGGSLKLSCAASGFTFNTYAMNWVRQASGKGLEWVGRIRSKYNNYATYYADSVKDRFTISRDDSKSTAYLQMNSLKTEDTAVYYCVRHGNFGNSYVSWFAYWGQGTLVTVSS
VL: QAVVTQEPSLTVSPGGTVTLTCRSSTGAVTTSNYANWVQQKPGQAPRGLIGGTNKRAPWTPARFSGSLLGDKAALTLSGAQPEDEAEYFCALWYSNLWVFGGGTKLTVL
The molecule B2 came in with a Kd of 48 nM.

B3: anti-CD3 antibody designated as CD3med (antibody, V domains shown)
VH: EVQLVESGGGLVQPGGSLKLSCAASGFTFNTYAMNWVRQASGKGLEWVGRIRSKYNNYATYYADSVKDRFTISRDDSKNTAYLQMNSLKTEDTAVYYCVRHGNFGNSYVSWFAHWGQGTLVTVSS
VL: QAVVTQEPSLTVSPGGTVTLTCGSSTGAVTSSNYANWVQQKPGQAPRGLIGGTNKRAPWTPARFSGSLLGGKAALTLSGAQPEDEAEYYCALWYSNLWVFGGGTKLTVL
As for B3, the Kd came out at 30 nM.
